Reference: patent US20120316071A1 (published 2012)

target: T1, Recombinant Human DLL4 (human, UniProt Q9NR61 27-524); assay: ELISA, DLL4 coated on the plate, Fab at 100 nM, signal minus blank
T1 construct: Bought recombinant human DLL4 (R&D Systems Cat#1506-D4/CF); also called delta-like protein 4; Delta-like 4

Binder | ELISA Signal-blank (100 nM Fab)
Fab VH5-51_IGHD5-18*01>3_IGHJ4*01 G100K/G104T G24T/S28R/G35V (H:KT TRV) & V3-4_IGLJ1*01 V91C (Fab, V domains shown, Fab; expressed from plasmid A (CH1, His6 and Flag tags) and plasmid E (lambda CL)) VH: EVQLVQSGAEVKKPGESLKISCKTSGYRFTSYWIVWVRQMPGKGLEWMGIIYPGDSDTRYSPSFQGQVTISADKSISTAYLQWSSLKASDTAMYYCARRKYSYTYDYFDYWGQGTLVTVSS VL: QTVVTQEPSFSVSPGGTVTLTCGLSSGSVSTSYYPSWYQQTPGQAPRTLIYSTNTRSSGVPDRFSGSILGNKAALTITGAQADDESDYYCCLYMGSGISYVFGTGTKVTVL | 0.625
Fab VH5-51_IGHD5-18*01>3_IGHJ4*01 G100K/G104T G24T/S28R/G35V (H:KT TRV) & V3-4_IGLJ1*01 V91P (Fab, V domains shown, Fab; expressed from plasmid A (CH1, His6 and Flag tags) and plasmid E (lambda CL)) VH: EVQLVQSGAEVKKPGESLKISCKTSGYRFTSYWIVWVRQMPGKGLEWMGIIYPGDSDTRYSPSFQGQVTISADKSISTAYLQWSSLKASDTAMYYCARRKYSYTYDYFDYWGQGTLVTVSS VL: QTVVTQEPSFSVSPGGTVTLTCGLSSGSVSTSYYPSWYQQTPGQAPRTLIYSTNTRSSGVPDRFSGSILGNKAALTITGAQADDESDYYCPLYMGSGISYVFGTGTKVTVL | 0.078
Fab VH5-51_IGHD5-18*01>3_IGHJ4*01 G100K/G104T G24T/S28R/G35V (H:KT TRV) & V3-4_IGLJ1*01 T55A (Fab, V domains shown, Fab; expressed from plasmid A (CH1, His6 and Flag tags) and plasmid E (lambda CL)) VH: EVQLVQSGAEVKKPGESLKISCKTSGYRFTSYWIVWVRQMPGKGLEWMGIIYPGDSDTRYSPSFQGQVTISADKSISTAYLQWSSLKASDTAMYYCARRKYSYTYDYFDYWGQGTLVTVSS VL: QTVVTQEPSFSVSPGGTVTLTCGLSSGSVSTSYYPSWYQQTPGQAPRTLIYSTNARSSGVPDRFSGSILGNKAALTITGAQADDESDYYCVLYMGSGISYVFGTGTKVTVL | 0.382
Fab VH5-51_IGHD5-18*01>3_IGHJ4*01 G100K/G104T G24T/S28R/G35V (H:KT TRV) & V3-4_IGLJ1*01 V91W (Fab, V domains shown, Fab; expressed from plasmid A (CH1, His6 and Flag tags) and plasmid E (lambda CL)) VH: EVQLVQSGAEVKKPGESLKISCKTSGYRFTSYWIVWVRQMPGKGLEWMGIIYPGDSDTRYSPSFQGQVTISADKSISTAYLQWSSLKASDTAMYYCARRKYSYTYDYFDYWGQGTLVTVSS VL: QTVVTQEPSFSVSPGGTVTLTCGLSSGSVSTSYYPSWYQQTPGQAPRTLIYSTNTRSSGVPDRFSGSILGNKAALTITGAQADDESDYYCWLYMGSGISYVFGTGTKVTVL | 0.08
Fab VH5-51_IGHD5-18*01>3_IGHJ4*01 G100K/G104T G24T/S28R/G35V (H:KT TRV) & V3-4_IGLJ1*01 V91N (Fab, V domains shown, Fab; expressed from plasmid A (CH1, His6 and Flag tags) and plasmid E (lambda CL)) VH: EVQLVQSGAEVKKPGESLKISCKTSGYRFTSYWIVWVRQMPGKGLEWMGIIYPGDSDTRYSPSFQGQVTISADKSISTAYLQWSSLKASDTAMYYCARRKYSYTYDYFDYWGQGTLVTVSS VL: QTVVTQEPSFSVSPGGTVTLTCGLSSGSVSTSYYPSWYQQTPGQAPRTLIYSTNTRSSGVPDRFSGSILGNKAALTITGAQADDESDYYCNLYMGSGISYVFGTGTKVTVL | 0.203

Now from value to binder:

ELISA Signal-blank (100 nM Fab) | Binder
0.264 | Fab VH5-51_IGHD5-18*01>3_IGHJ4*01 G100K/G104T G24T/S28R/G35V (H:KT TRV) & V3-4_IGLJ1*01 V91S (Fab, V domains shown, Fab; expressed from plasmid A (CH1, His6 and Flag tags) and plasmid E (lambda CL)) VH: EVQLVQSGAEVKKPGESLKISCKTSGYRFTSYWIVWVRQMPGKGLEWMGIIYPGDSDTRYSPSFQGQVTISADKSISTAYLQWSSLKASDTAMYYCARRKYSYTYDYFDYWGQGTLVTVSS VL: QTVVTQEPSFSVSPGGTVTLTCGLSSGSVSTSYYPSWYQQTPGQAPRTLIYSTNTRSSGVPDRFSGSILGNKAALTITGAQADDESDYYCSLYMGSGISYVFGTGTKVTVL
0.197 | Fab VH5-51_IGHD5-18*01>3_IGHJ4*01 G100K/G104T G24T/S28R/G35V (H:KT TRV) & V3-4_IGLJ1*01 V91T (Fab, V domains shown, Fab; expressed from plasmid A (CH1, His6 and Flag tags) and plasmid E (lambda CL)) VH: EVQLVQSGAEVKKPGESLKISCKTSGYRFTSYWIVWVRQMPGKGLEWMGIIYPGDSDTRYSPSFQGQVTISADKSISTAYLQWSSLKASDTAMYYCARRKYSYTYDYFDYWGQGTLVTVSS VL: QTVVTQEPSFSVSPGGTVTLTCGLSSGSVSTSYYPSWYQQTPGQAPRTLIYSTNTRSSGVPDRFSGSILGNKAALTITGAQADDESDYYCTLYMGSGISYVFGTGTKVTVL
0.127 | Fab VH5-51_IGHD5-18*01>3_IGHJ4*01 G100K/G104T G24T/S28R/G35V (H:KT TRV) & V3-4_IGLJ1*01 V91H (Fab, V domains shown, Fab; expressed from plasmid A (CH1, His6 and Flag tags) and plasmid E (lambda CL)) VH: EVQLVQSGAEVKKPGESLKISCKTSGYRFTSYWIVWVRQMPGKGLEWMGIIYPGDSDTRYSPSFQGQVTISADKSISTAYLQWSSLKASDTAMYYCARRKYSYTYDYFDYWGQGTLVTVSS VL: QTVVTQEPSFSVSPGGTVTLTCGLSSGSVSTSYYPSWYQQTPGQAPRTLIYSTNTRSSGVPDRFSGSILGNKAALTITGAQADDESDYYCHLYMGSGISYVFGTGTKVTVL
0.529 | Fab VH5-51_IGHD5-18*01>3_IGHJ4*01 G100K/G104T G24T/S28R/G35V (H:KT TRV) & V3-4_IGLJ1*01 V91A (Fab, V domains shown, Fab; expressed from plasmid A (CH1, His6 and Flag tags) and plasmid E (lambda CL)) VH: EVQLVQSGAEVKKPGESLKISCKTSGYRFTSYWIVWVRQMPGKGLEWMGIIYPGDSDTRYSPSFQGQVTISADKSISTAYLQWSSLKASDTAMYYCARRKYSYTYDYFDYWGQGTLVTVSS VL: QTVVTQEPSFSVSPGGTVTLTCGLSSGSVSTSYYPSWYQQTPGQAPRTLIYSTNTRSSGVPDRFSGSILGNKAALTITGAQADDESDYYCALYMGSGISYVFGTGTKVTVL
0.336 | Fab VH5-51_IGHD5-18*01>3_IGHJ4*01 G100K/G104T G24T/S28R/G35V (H:KT TRV) & V3-4_IGLJ1*01 V91I (Fab, V domains shown, Fab; expressed from plasmid A (CH1, His6 and Flag tags) and plasmid E (lambda CL)) VH: EVQLVQSGAEVKKPGESLKISCKTSGYRFTSYWIVWVRQMPGKGLEWMGIIYPGDSDTRYSPSFQGQVTISADKSISTAYLQWSSLKASDTAMYYCARRKYSYTYDYFDYWGQGTLVTVSS VL: QTVVTQEPSFSVSPGGTVTLTCGLSSGSVSTSYYPSWYQQTPGQAPRTLIYSTNTRSSGVPDRFSGSILGNKAALTITGAQADDESDYYCILYMGSGISYVFGTGTKVTVL
